Consider two variants from IntAct's records for PubMed 10779557.

The chains are these.
B1: Lymphokine-activated killer T-cell-originated protein kinase (Homo sapiens), Q96KB5 (parent)
chain: MEGISNFKTPSKLSEKKKSVLCSTPTINIPASPFMQKLGFGTGVNVYLMKRSPRGLSHSPWAVKKINPICNDHYRSVYQKRLMDEAKILKSLHHPNIVGYRAFTEANDGSLCLAMEYGGEKSLNDLIEERYKASQDPFPAAIILKVALNMARGLKYLHQEKKLLHGDIKSSNVVIKGDFETIKICDVGVSLPLDENMTVTDPEACYIGTEPWKPKEAVEENGVITDKADIFAFGLTLWEMMTLSIPHINLSNDDDDEDKTFDESDFDDEAYYAALGTRPPINMEELDESYQKVIELFSVCTNEDPKDRPSAAHIVEALETDV

The variants in the assay derive from B1. Particulars: with dlg1_human DLG1, Q12959.
Sequence of dlg1_human DLG1, Q12959 (Q12959 whole entry, looked up): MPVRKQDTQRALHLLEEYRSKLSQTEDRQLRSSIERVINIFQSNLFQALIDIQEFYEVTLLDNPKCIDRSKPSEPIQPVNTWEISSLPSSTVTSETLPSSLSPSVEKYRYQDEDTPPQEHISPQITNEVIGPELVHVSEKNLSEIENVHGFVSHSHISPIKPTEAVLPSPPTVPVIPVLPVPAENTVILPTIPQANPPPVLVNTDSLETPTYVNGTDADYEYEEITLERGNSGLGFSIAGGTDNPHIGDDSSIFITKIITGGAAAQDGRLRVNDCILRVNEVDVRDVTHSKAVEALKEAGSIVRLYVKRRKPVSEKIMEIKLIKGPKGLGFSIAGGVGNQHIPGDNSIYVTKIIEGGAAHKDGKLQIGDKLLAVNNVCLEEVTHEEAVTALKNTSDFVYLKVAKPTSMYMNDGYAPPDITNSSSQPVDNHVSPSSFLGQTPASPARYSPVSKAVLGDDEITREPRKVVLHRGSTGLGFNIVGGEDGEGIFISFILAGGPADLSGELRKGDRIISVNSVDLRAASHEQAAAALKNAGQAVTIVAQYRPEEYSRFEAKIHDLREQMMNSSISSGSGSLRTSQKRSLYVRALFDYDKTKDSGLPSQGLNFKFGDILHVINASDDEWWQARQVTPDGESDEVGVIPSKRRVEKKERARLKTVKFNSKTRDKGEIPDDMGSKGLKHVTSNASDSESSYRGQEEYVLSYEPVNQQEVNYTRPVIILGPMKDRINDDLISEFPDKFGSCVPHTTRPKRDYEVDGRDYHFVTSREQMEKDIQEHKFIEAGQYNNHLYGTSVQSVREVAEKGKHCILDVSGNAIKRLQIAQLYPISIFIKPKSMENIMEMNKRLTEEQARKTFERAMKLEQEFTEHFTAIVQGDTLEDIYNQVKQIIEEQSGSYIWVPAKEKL
For V322A, the “effect of a mutation on the interaction” value is “disrupting interaction”.

Consider T320A, for which the “effect of a mutation on the interaction” value was “decreasing interaction”.
